According to US20040052796A1:

Target: p185HER-2 (HER-2/neu, erbB-2 receptor tyrosine kinase) (human) (UniProt P04626)
Assay: method not described; binding to cell surface p185HER-2 (statement in the summary)

Kd: 0.014 µM
Substance: p68HER-2 (herstatin), product of the alternative HER-2 transcript with retained intron 8 (ligand)
